Test system: Escherichia coli TOP10
Experiment: shrunken log2 fold change of peptide-encoding DNA abundance (4.5 h post-induction vs induction); higher = less antimicrobial activity (less host growth inhibition)
Details: time post-induction: 4.5 h; library: site-saturation at positions 5, 18, 19, 20
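Also: peptides expressed intracellularly from a pBAD plasmid library in pooled LB shake-flask culture, induced with 0.3% L-arabinose, DNA abundance read by NGS, three biological replicates, DESeq2 with apeglm shrinkage.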

| Sequence | shrunken log2 fold change |
| --- | --- |
| RRIRRRPPRLPRPRPRPRPIPRP | 0.945 |
| RRIRDRPPRLPRPRPRPRPLPRP | 0.39 |
| RRIRMRPPRLPRPRPRPPMPPRP | 0.703 |
| RRIRFRPPRLPRPRPRPPVPPRP | 0.859 |
| RRIRYRPPRLPRPRPRPYVEPRP | -0.00822 |
| RRIRFRPPRLPRPRPRPKSQPRP | -0.0404 |
| RRIRSRPPRLPRPRPRPTNAPRP | -0.0746 |
| RRIRHRPPRLPRPRPRPKKDPRP | -0.494 |
| RRIRFRPPRLPRPRPRPEFYPRP | 0.0551 |
| RRIRTRPPRLPRPRPRPWPSPRP | -0.00931 |
| RRIRCRPPRLPRPRPRPYFCPRP | -0.514 |
| RRIRYRPPRLPRPRPRPGPEPRP | 0.0444 |
| RRIRERPPRLPRPRPRPPAVPRP | 0.349 |
| RRIRPRPPRLPRPRPRPMHMPRP | 0.0173 |
| RRIRDRPPRLPRPRPRPLYTPRP | -0.181 |
| RRIRCRPPRLPRPRPRPFMCPRP | -0.0735 |
| RRIRWRPPRLPRPRPRPGTIPRP | -0.283 |
| RRIRQRPPRLPRPRPRPMTHPRP | -0.466 |
| RRIRYRPPRLPRPRPRPDPWPRP | -0.26 |
| RRIRVRPPRLPRPRPRPSDKPRP | -0.153 |
| RRIRDRPPRLPRPRPRPAQGPRP | 0.00228 |
| RRIRWRPPRLPRPRPRPLCGPRP | 1.71 |
| RRIRARPPRLPRPRPRPWHIPRP | 0.0256 |
| RRIRCRPPRLPRPRPRPCTNPRP | -0.134 |
| RRIRKRPPRLPRPRPRPQMAPRP | 0.481 |

| Sequence | shrunken log2 fold change |
| --- | --- |
| RRIRERPPRLPRPRPRPMVVPRP | -0.261 |
| RRIRERPPRLPRPRPRPQMRPRP | 0.0123 |
| RRIRFRPPRLPRPRPRPFMAPRP | -0.417 |
| RRIRQRPPRLPRPRPRPQAKPRP | 0.0346 |
| RRIRQRPPRLPRPRPRPLPQPRP | 0.337 |
| RRIRPRPPRLPRPRPRPLGQPRP | 0.0471 |
| RRIRYRPPRLPRPRPRPQLEPRP | -0.418 |
| RRIRWRPPRLPRPRPRPTPTPRP | 0.22 |
| RRIRARPPRLPRPRPRPICHPRP | 0.0398 |
| RRIRRRPPRLPRPRPRPMINPRP | -0.157 |
| RRIRRRPPRLPRPRPRPCLCPRP | -0.00345 |
| RRIRARPPRLPRPRPRPGFHPRP | 0.245 |
| RRIRHRPPRLPRPRPRPLEGPRP | 0.0244 |
| RRIRERPPRLPRPRPRPGHDPRP | -0.449 |
| RRIRSRPPRLPRPRPRPCYPPRP | -0.264 |
| RRIRVRPPRLPRPRPRPEHPPRP | 0.0168 |
| RRIRMRPPRLPRPRPRPYPIPRP | 0.0414 |
| RRIRERPPRLPRPRPRPASCPRP | -0.211 |
| RRIRARPPRLPRPRPRPLELPRP | 0.386 |
| RRIRKRPPRLPRPRPRPKNVPRP | 0.0773 |
| RRIRDRPPRLPRPRPRPSMIPRP | -0.162 |
| RRIRGRPPRLPRPRPRPSKVPRP | -0.116 |
| RRIRQRPPRLPRPRPRPVQVPRP | -0.0564 |
| RRIRTRPPRLPRPRPRPVAFPRP | -0.225 |
| RRIRARPPRLPRPRPRPKIHPRP | -0.0619 |

| Sequence | shrunken log2 fold change |
| --- | --- |
| RRIRWRPPRLPRPRPRPWWWPRP | 0.12 |
| RRIRKRPPRLPRPRPRPHTQPRP | 0.13 |
| RRIRQRPPRLPRPRPRPAFCPRP | 0.585 |
| RRIRDRPPRLPRPRPRPRPYPRP | 0.018 |
| RRIRMRPPRLPRPRPRPCDPPRP | -0.0166 |
| RRIRARPPRLPRPRPRPYLKPRP | -0.352 |
| RRIRLRPPRLPRPRPRPCHPPRP | 0.159 |
| RRIRTRPPRLPRPRPRPQIVPRP | 0.0532 |
| RRIRLRPPRLPRPRPRPMLFPRP | -0.136 |
| RRIRERPPRLPRPRPRPLHHPRP | -0.458 |
| RRIRCRPPRLPRPRPRPLIVPRP | -0.596 |
| RRIRGRPPRLPRPRPRPFPGPRP | 0.0889 |
| RRIRGRPPRLPRPRPRPDCEPRP | 1.44 |
| RRIRVRPPRLPRPRPRPETKPRP | 0.242 |
| RRIRGRPPRLPRPRPRPTEMPRP | 0.814 |
| RRIRGRPPRLPRPRPRPPFTPRP | 0.462 |
| RRIRLRPPRLPRPRPRPFAAPRP | 0.281 |
| RRIRERPPRLPRPRPRPKYYPRP | -0.183 |
| RRIRRRPPRLPRPRPRPERSPRP | 0.0187 |
| RRIRGRPPRLPRPRPRPMYVPRP | -0.0802 |
| RRIRFRPPRLPRPRPRPSSWPRP | -0.105 |
| RRIRHRPPRLPRPRPRPFKSPRP | 0.00748 |
| RRIRVRPPRLPRPRPRPHCKPRP | -0.299 |
| RRIRQRPPRLPRPRPRPWVFPRP | -0.227 |
| RRIRPRPPRLPRPRPRPWVIPRP | 0.0892 |

| Sequence | shrunken log2 fold change |
| --- | --- |
| RRIRWRPPRLPRPRPRPEFMPRP | 0.635 |
| RRIRCRPPRLPRPRPRPGIAPRP | 0.201 |
| RRIRGRPPRLPRPRPRPSCCPRP | 0.722 |
| RRIRRRPPRLPRPRPRPEKIPRP | 0.164 |
| RRIRQRPPRLPRPRPRPEDYPRP | -0.0734 |
| RRIRRRPPRLPRPRPRPIFPPRP | 0.69 |
| RRIRQRPPRLPRPRPRPLCVPRP | -0.183 |
| RRIRCRPPRLPRPRPRPKMSPRP | 0.157 |
| RRIRWRPPRLPRPRPRPADHPRP | 0.193 |
| RRIRGRPPRLPRPRPRPLHEPRP | 0.74 |
| RRIRGRPPRLPRPRPRPLPSPRP | 0.83 |
| RRIRGRPPRLPRPRPRPSWRPRP | 0.477 |
| RRIRTRPPRLPRPRPRPIVIPRP | -0.054 |
| RRIRSRPPRLPRPRPRPRGSPRP | 0.378 |
| RRIRLRPPRLPRPRPRPAWCPRP | 0.094 |
| RRIRWRPPRLPRPRPRPKYEPRP | -0.0182 |
| RRIRSRPPRLPRPRPRPHYCPRP | -0.289 |
| RRIRARPPRLPRPRPRPAEGPRP | 0.818 |
| RRIRFRPPRLPRPRPRPMDKPRP | -0.301 |
| RRIRPRPPRLPRPRPRPNFAPRP | 0.445 |
| RRIRERPPRLPRPRPRPYHLPRP | -0.0102 |
| RRIRIRPPRLPRPRPRPRYDPRP | -0.285 |
| RRIRPRPPRLPRPRPRPGCYPRP | 0.189 |
| RRIRLRPPRLPRPRPRPFPTPRP | -0.158 |
| RRIRGRPPRLPRPRPRPSHDPRP | 0.136 |

| Sequence | shrunken log2 fold change |
| --- | --- |
| RRIRVRPPRLPRPRPRPIWWPRP | 1.44 |
| RRIRMRPPRLPRPRPRPEWQPRP | 0.23 |
| RRIRTRPPRLPRPRPRPDFCPRP | -0.311 |
| RRIRFRPPRLPRPRPRPSKRPRP | -0.565 |
| RRIRPRPPRLPRPRPRPGDHPRP | -0.013 |
| RRIRCRPPRLPRPRPRPVWKPRP | 0.159 |
| RRIRHRPPRLPRPRPRPVNMPRP | -0.00401 |
| RRIRMRPPRLPRPRPRPMNDPRP | 0.25 |
| RRIRNRPPRLPRPRPRPANMPRP | -0.205 |
| RRIRWRPPRLPRPRPRPPLIPRP | -0.0843 |
| RRIRYRPPRLPRPRPRPYGQPRP | -0.0112 |
| RRIRTRPPRLPRPRPRPYEDPRP | -0.0155 |
| RRIRYRPPRLPRPRPRPAKYPRP | -0.142 |
| RRIRRRPPRLPRPRPRPKKCPRP | -0.325 |
| RRIRHRPPRLPRPRPRPNDLPRP | 0.0529 |
| RRIRSRPPRLPRPRPRPSHFPRP | -0.182 |
| RRIRQRPPRLPRPRPRPQVNPRP | -0.499 |
| RRIRARPPRLPRPRPRPYTIPRP | -0.236 |
| RRIRHRPPRLPRPRPRPTGWPRP | 0.841 |
| RRIRIRPPRLPRPRPRPLCHPRP | -0.626 |
| RRIRQRPPRLPRPRPRPRALPRP | 0.125 |
| RRIRERPPRLPRPRPRPMTRPRP | -0.00264 |
| RRIRHRPPRLPRPRPRPLFLPRP | -0.612 |
| RRIRFRPPRLPRPRPRPSPVPRP | -0.00168 |
| RRIRRRPPRLPRPRPRPFWNPRP | 0.0866 |

| Sequence | shrunken log2 fold change |
| --- | --- |
| RRIRYRPPRLPRPRPRPMPLPRP | -0.398 |
| RRIRHRPPRLPRPRPRPSYDPRP | -0.0244 |
| RRIRTRPPRLPRPRPRPDRPPRP | 0.188 |
| RRIRGRPPRLPRPRPRPFMIPRP | -0.0383 |
| RRIRWRPPRLPRPRPRPNDQPRP | 0.0201 |
| RRIRQRPPRLPRPRPRPYTMPRP | -0.128 |
| RRIRNRPPRLPRPRPRPEDCPRP | -0.00844 |
| RRIRWRPPRLPRPRPRPAHDPRP | 0.0987 |
| RRIRIRPPRLPRPRPRPWDDPRP | -0.391 |
| RRIRGRPPRLPRPRPRPCLVPRP | 0.761 |
| RRIRMRPPRLPRPRPRPSTKPRP | 0.291 |
| RRIRCRPPRLPRPRPRPPCLPRP | -0.199 |
| RRIRMRPPRLPRPRPRPMSIPRP | -0.0109 |
| RRIRFRPPRLPRPRPRPGGQPRP | 0.0786 |
| RRIRERPPRLPRPRPRPMKLPRP | -0.0902 |
| RRIRARPPRLPRPRPRPYPMPRP | 0.019 |
| RRIRERPPRLPRPRPRPSGPPRP | -0.203 |
| RRIRKRPPRLPRPRPRPNPRPRP | 0.228 |
| RRIRERPPRLPRPRPRPTDIPRP | -0.0479 |
| RRIRDRPPRLPRPRPRPIPIPRP | -0.0457 |
| RRIRSRPPRLPRPRPRPSQVPRP | -0.323 |
| RRIRPRPPRLPRPRPRPLHMPRP | -0.342 |
| RRIRKRPPRLPRPRPRPCYMPRP | -0.195 |
| RRIRHRPPRLPRPRPRPEVSPRP | -0.0122 |
| RRIRWRPPRLPRPRPRPNMQPRP | -0.0262 |

Source: the supplement of paper PMC9112550, “Optimization of the antimicrobial peptide Bac7 by deep mutational scanning” (BMC Biology, 2022)
